Assay results from US20240100176A1 (Eli Lilly, published 2024).

How the values were obtained:
[1] = target: T1, hexahistidine tagged human IL-4Rα ECD D66R (human, UniProt P24394 26-232); experiment: capture ELISA, His-tagged receptor mutant
T1 construct: also called D66R IL-4Rα; not shown: hexahistidine tag
Source text: Example 2d. […] Briefly, thirty surface amino acid residue substitutions were introduced individually into hexahistidine tagged human IL-4Rα extra cellular domain (ECD) as follows: K2D, E6R, K22D, P26R, T31R, F41A, L42G, L43G, E45R, E52R, G56R, D66R, A71R, Q82G, K87D, E94R, H107A, D108R, P124R, D125R, D143R, R148D, L155R, R160D, S164R, S168R, Q181R, P192R, K195D, or H197G. Each mutant protein having a single amino acid residue substitution as described above was transiently expressed in CHO cells and purified using standard immobilized metal affinity chromatography techniques. […] The plates were then washed 3 times with PBST and the exemplified human IL-4Rα antibody was added to the wells at a final concentration of 1 μg/mL in PBS-casein and incubated for 1 hour at room temperature. The plates were washed 3 times with PBST, the IL-4Rα mutant proteins were serially diluted 5-fold from 1 μg/mL for 3 points. in PBS-casein and added to the plate at 50 μL/well and incubated for 1 hour at room temperature. […] The plates were washed 3 times, TMB substrate (Pierce, Cat. #34028) was added per manufacturer instructions, the reaction was quenched with H₂SO₄, and absorbance was read at 450 nm on an ELISA plate reader.

[2] = target: T2, hexahistidine tagged human IL-4Rα ECD G56R (human, UniProt P24394 26-232); experiment: capture ELISA: Ab1 on anti-human IgG Fc, His-tagged receptor at 1 µg/mL, anti-His HRP
T2 construct: not shown: hexahistidine tag
Source text: (§1) Example 2d. […] Briefly, thirty surface amino acid residue substitutions were introduced individually into hexahistidine tagged human IL-4Rα extra cellular domain (ECD) as follows: K2D, E6R, K22D, P26R, T31R, F41A, L42G, L43G, E45R, E52R, G56R, D66R, A71R, Q82G, K87D, E94R, H107A, D108R, P124R, D125R, D143R, R148D, L155R, R160D, S164R, S168R, Q181R, P192R, K195D, or H197G. Each mutant protein having a single amino acid residue substitution as described above was transiently expressed in CHO cells and purified using standard immobilized metal affinity chromatography techniques. […] The plates were then washed 3 times with PBST and the exemplified human IL-4Rα antibody was added to the wells at a final concentration of 1 μg/mL in PBS-casein and incubated for 1 hour at room temperature. The plates were washed 3 times with PBST, the IL-4Rα mutant proteins were serially diluted 5-fold from 1 μg/mL for 3 points. in PBS-casein and added to the plate at 50 μL/well and incubated for 1 hour at room temperature. The plates were washed 3 times with PBST and a 1000-fold dilution of anti-histidine tag antibody HRP conjugate (R&D Systems, Cat. #MAB050H) in PBS-casein was added and incubated for 45 minutes at room temperature. The plates were washed 3 times, TMB substrate (Pierce, Cat. #34028) was added per manufacturer instructions, the reaction was quenched with H₂SO₄, and absorbance was read at 450 nm on an ELISA plate reader.

[3] = target: T3, hexahistidine tagged human IL-4Rα ECD L42G (human, UniProt P24394 26-232); experiment: as above
T3 construct: not shown: hexahistidine tag
Source text: as §1

[4] = target: T4, hexahistidine tagged human IL-4Rα ECD E6R (human, UniProt P24394 26-232); experiment: as above
T4 construct: not shown: hexahistidine tag
Source text: as §1

[5] = target: T5, hexahistidine tagged human IL-4Rα ECD D125R (human, UniProt P24394 26-232); experiment: as above
T5 construct: not shown: hexahistidine tag
Source text: as §1

[6] = target: T6, hexahistidine tagged human IL-4Rα ECD L155R (human, UniProt P24394 26-232); experiment: as above
T6 construct: not shown: hexahistidine tag
Source text: as §1

[7] = target: T7, hexahistidine tagged human IL-4Rα ECD Q82G (human, UniProt P24394 26-232); experiment: as above
T7 construct: not shown: hexahistidine tag
Source text: as §1

[8] = target: T8, hexahistidine tagged human IL-4Rα ECD K87D (human, UniProt P24394 26-232); experiment: as above
T8 construct: not shown: hexahistidine tag
Source text: as §1

[9] = target: T9, hexahistidine tagged human IL-4Rα ECD P192R (human, UniProt P24394 26-232); experiment: as above
T9 construct: not shown: hexahistidine tag
Source text: as §1

[10] = target: T10, hexahistidine tagged human IL-4Rα ECD A71R (human, UniProt P24394 26-232); experiment: as above
T10 construct: not shown: hexahistidine tag
Source text: as §1

[11] = target: T11, hexahistidine tagged human IL-4Rα ECD D143R (human, UniProt P24394 26-232); experiment: capture ELISA: Ab1 on anti-human IgG Fc, His-tagged receptor at 0.2 µg/mL, anti-His HRP
T11 construct: not shown: hexahistidine tag
Source text: as §1

[12] = target: T4, hexahistidine tagged human IL-4Rα ECD …; experiment: as above
Source text: as §1

[13] = target: T12, hexahistidine tagged human IL-4Rα ECD P26R (human, UniProt P24394 26-232); experiment: as above
T12 construct: not shown: hexahistidine tag
Source text: as §1

[14] = target: T13, hexahistidine tagged human IL-4Rα ECD H197G (human, UniProt P24394 26-232); experiment: as above
T13 construct: not shown: hexahistidine tag
Source text: as §1

[15] = target: T14, hexahistidine tagged human IL-4Rα ECD K195D (human, UniProt P24394 26-232); experiment: as above
T14 construct: not shown: hexahistidine tag
Source text: as §1

[16] = target: T6, hexahistidine tagged human IL-4Rα ECD …; experiment: as above
Source text: as §1

[17] = target: T15, hexahistidine tagged human IL-4Rα ECD E52R (human, UniProt P24394 26-232); experiment: as above
T15 construct: not shown: hexahistidine tag
Source text: as §1

[18] = target: T16, hexahistidine tagged human IL-4Rα ECD Q181R (human, UniProt P24394 26-232); experiment: as above
T16 construct: not shown: hexahistidine tag
Source text: as §1

[19] = target: T17, hexahistidine tagged human IL-4Rα ECD S164R (human, UniProt P24394 26-232); experiment: as above
T17 construct: not shown: hexahistidine tag
Source text: as §1

T6 sequence (P24394 26-232 L180R): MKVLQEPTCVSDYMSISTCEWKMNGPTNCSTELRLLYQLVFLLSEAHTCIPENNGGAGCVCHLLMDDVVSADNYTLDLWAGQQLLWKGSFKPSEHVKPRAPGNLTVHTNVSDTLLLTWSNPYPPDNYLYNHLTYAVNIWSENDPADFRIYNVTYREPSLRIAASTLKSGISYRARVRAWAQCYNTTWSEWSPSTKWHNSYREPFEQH
T4 sequence (P24394 other isoform, or with tags, fused parts or gaps): as the sequence (P24394 26-232 L180R) above, with E6R, R155L counted along it
T5 sequence (P24394 26-232 D150R): as the sequence (P24394 26-232 L180R) above, with D125R, R155L counted along it
T10 sequence (P24394 26-232 A96R): as the sequence (P24394 26-232 L180R) above, with A71R, R155L counted along it
T13 sequence (P24394 26-232 H222G): as the sequence (P24394 26-232 L180R) above, with R155L, H197G counted along it
T17 sequence (P24394 26-232 S189R): as the sequence (P24394 26-232 L180R) above, with R155L, S164R counted along it
T15 sequence (P24394 26-232 E77R): as the sequence (P24394 26-232 L180R) above, with E52R, R155L counted along it
T14 sequence (P24394 26-232 K220D): as the sequence (P24394 26-232 L180R) above, with R155L, K195D counted along it
T7 sequence (P24394 26-232 Q107G): as the sequence (P24394 26-232 L180R) above, with Q82G, R155L counted along it
T12 sequence (P24394 26-232 P51R): as the sequence (P24394 26-232 L180R) above, with P26R, R155L counted along it
T16 sequence (P24394 26-232 Q206R): as the sequence (P24394 26-232 L180R) above, with R155L, Q181R counted along it
T11 sequence (P24394 26-232 D168R): as the sequence (P24394 26-232 L180R) above, with D143R, R155L counted along it
T3 sequence (P24394 26-232 L67G): as the sequence (P24394 26-232 L180R) above, with L42G, R155L counted along it

- binding result [1]: no binding (tested: 1 µg/mL)
- ELISA (OD450) [2]: 1.73 OD450
- ELISA (OD450) [3]: 1.71 OD450
- ELISA (OD450) [4]: 2.25 OD450
- ELISA (OD450) [5]: 1.79 OD450
- ELISA (OD450) [6]: 1.78 OD450
- ELISA (OD450) [7]: 1.74 OD450
- ELISA (OD450) [8]: 1.75 OD450
- ELISA (OD450) [9]: 1.94 OD450
- ELISA (OD450) [10]: 1.7 OD450
- ELISA (OD450) [11]: 1.69 OD450
- ELISA (OD450) [12]: 1.5 OD450
- ELISA (OD450) [13]: 1.52 OD450
- ELISA (OD450) [14]: 1.6 OD450
- ELISA (OD450) [15]: 1.65 OD450
- ELISA (OD450) [16]: 1.68 OD450
- ELISA (OD450) [17]: 1.71 OD450
- ELISA (OD450) [18]: 1.71 OD450
- ELISA (OD450) [19]: 1.77 OD450
B1: anti-human IL-4Rα antibody Ab1 (antibody, human IgG4 S228P, kappa)
heavy: QVQLVESGGGLVQPGGSLRLSCVASGFTFSHSSMNWVRQAPGKGLEWVSYISRATGAVYYADSVKGRFTISRDNAKNSLYLQMNSLRDEDTAVYYCAREPVFDYWGQGTLVTVSSASTKGPCVFPLAPCSRSTSESTAALGCLVKDYFPEPVTVSWNSGALTSGVHTFPAVLQSSGLYSLSSVVTVPSSSLGTKTYTCNVDHKPSNTKVDKRVESKYGPPCPPCPAPEFLGGPSVFLFPPKPKDTLMISRTPEVTCVVVDVSQEDPEVKFNWYVDGVEVHNAKTKPREEQFNSTYRVVSVLTVLHQDWLNGKEYKCKVSNKGLPSSIEKTISKAKGQPREPQVYTLPPSREEMTKNQVSLTCLVKGFYPSDICVEWESNGQPENNYKTTPPVLDSDGSFFLYSRLTVDKSRWQQGNVFSCSVMHEALHNHYTQKSLSLSLG
light: DIQMTQSPSAMSASVGDRVTITCRASQDISNYLAWFQQKPGKVPTRLIYAASSLQSGVPSRFSGSGSGTEFTLTISSLQPEDFATYYCLQWSSYPRTFGQGTKVEIKRTVAAPSVFIFPPSDEQLKSGTASVVCLLNNFYPREAKVQWKVDNALQSGNSQESVTEQDSKDSTYSLSSTLTLSKADYEKHKVYACEVTHQGLSSPVTKSFNRGEC
notes: human kappa light chain; also called anti-human IL-4Rα Ab1; unconjugated Ab1
